# Reference: patent US20030236190A1 (published 2003)
# Positions of bridges follow the written chain, without caps; N, C: chain ends. No end group written: not given here.
# What was measured:
# [1] = target: human insulin receptor (HIR) (human, UniProt P06213 28-1382, limits assumed); assay: HIR Kd, Table 14; competition with 125I-insulin on solubilised HIR (method of Example 3, not restated for this table)
# [2] = target: T1, Soluble IGF-1R (R&D Systems, Cat. # 391-GR/CF); recombinant human IGF-1R (human, UniProt P08069 31-935); assay: phage ELISA, vs IR
# T1 construct: extracellular domain; Eu3+-labelled in the TR-FRET assays; also called sIGF-1R; rhIGF-1R
# [3] = target: T1, Soluble IGF-1R (R&D Systems, Cat. # …); assay: phage ELISA vs milk
# [4] = target: T2, Insulin receptor prepared according to Bass et al., 1996: soluble human insulin receptor-immunoglobulin heavy … (human, UniProt P06213 28-956); assay: phage ELISA vs milk
# T2 construct: extracellular domain; Eu3+-labelled in TR-FRET; also called IR; sIR-Fc; not shown: immunoglobulin heavy chain constant domains that replace the transmembrane and i
# [5] = target: T2, Insulin receptor prepared according to …; assay: phage ELISA, vs IGF-1R
Binder,Kd [1] [nM],IGF-1R/IR Comparison [2] [ratio],Ratio over Background [3] [fold],Ratio over Background [4] [fold],IR/IGF-1R Comparison [5] [ratio]
"RB437 (other, not shown: large carriers, MBP fusion, uncleaved) NNNNLGIEGRISEFIEGRAQPAMAFHENFYDWFVRQVSAAAGAPVPYPDPLEPRAA",8300,–,–,–,–
"RB463 (other, not shown: large carriers, MBP fusion, uncleaved) NNNNLGIEGRISEFIEGRAQPAMAFHENFYDWFVRQVSGGSFHENFYDWFVRQVSAAAGAPVPYPDPLEPRAA",960,–,–,–,–
"RB436 (other, not shown: large carriers, MBP fusion, uncleaved) NNNNLGIEGRISEFIEGRAQPAMAFHENFYDWFVRQVSGGSGGSGGSFHENFYDWFVRQVSAAAGAPVPYPDPLEPRAA",410,–,–,–,–
VATSQGFYSGLSELLQGGGNV [20E2H-3-E12-IGFR],–,7.3,6,0.8,0.1
IWATGDFYRLLSQLVMGRVGT [20E2B-2-88-IGFR],–,7.2,5.7,0.8,0.1
EGSGFYGYFFSLLGLQG [NNRPy-4-A9-IR],–,7.1,10,1.4,0.1
RQGTGSFYLMLEQLLVGARGP [20E2B-4-G11-IGFR],–,7,4.5,0.6,0.1
DSVGDNFYQLLESLVGGHGVG [20E28-3-D6-IGFR],–,6.9,17.8,2.6,0.1
RGIVAMVEATEVGSDHDPFYHKLSELVQGS [B6Hα-2-C7-IR],–,6.7,6.7,1,0.1
LSSDGQFYRALNLLLQGSAGR [20E2B-2-B7-IGFR],–,6.7,6.1,0.9,0.1
ASSASGFYELLQRLAGLGLEV [20E2B-3-C4-1GFR],–,6.2,20.4,3.3,0.2
FFYRCLSRLLGGQLGSRLGLSCIGD (disulfide 5-22 (inferred)) [20C-3-E4-IGFR],–,6,7.7,1.3,0.2
IIGGFYSYFNSVLRLGT [NNRPγ-4-A1-IR],–,6,10.9,1.8,0.2
PAGPCGFYCGLGLLLHGDQSP (disulfide 5-9 (inferred)) [20E2B-4-H8-IGFR],–,5.9,5.3,0.9,0.2
RCQGTGFYTCIQELIGFGDPD (disulfide 2-10 (inferred)) [20E2B-4-E9-IGFR],–,5.6,5.2,0.9,0.2
SGAKVIVVTGDSGDPFYHKLSELLQGS [B6Eα-2-C10-IR],–,5.3,5.8,1.1,0.2
VGTVAGFYDAIAQLVARASRV [20E2A-3-C7-IGFR],–,5.1,5.4,1.1,0.2
TLRSPTFYDWLEMVLTHGQGG [20E22-1-A8-IGFR],–,5,4.4,0.9,0.2

Binder,Kd [1] [nM],IGF-1R/IR Comparison [2] [ratio],Ratio over Background [3] [fold],Ratio over Background [4] [fold],IR/IGF-1R Comparison [5] [ratio]
RFDPFYSYFVNLLGASA [NNRPγ-4-A7-IR],–,4.9,6.3,1.3,0.2
RGKTAAVIVGRPADPFYHKLSELLQGG [26Hα-3-E8-IR],–,4.8,5.3,1.1,0.2
GCVVEWQKWHGASDPFYHKLSELGGCS (disulfide 2-26 (inferred)) [B6Hα-3-F10-IR],–,4.6,8.8,1.9,0.2
GRTMAVMAAGGPDDPFYHKLSELVQGG [B6Hα-2-D6-IR],–,4.4,4.4,1,0.2
GCAVVEEAERSRGDPFYHKLSELIQGC (disulfide 2-27 (inferred)) [B6Hα-3-E7-IR],–,4.3,5.6,1.3,0.2
GCEVIVEEGDSADPFYHKLSELCQGS (disulfide 2-23 (inferred)) [B6Hα-2-D1-IR],–,4.2,5.4,1.3,0.2
MMVVDGFYDALHQLVVAQSLG [20E2A-3-D10-IGFR],–,3.9,6.9,1.8,0.3
LSVALSFYDALGQLVAGEGRW [20E2A-3-A12-IGFR],–,3.9,4.3,1.1,0.3
GGTKAVAKVGTRDDPFYHKLSELLQGS [H6Hα-4-G8-IR],–,3.6,6.1,1.7,0.3
AETSVQVGWIRLQSVWPGEHWNTVDPFYHKLSELLRGSGA [B6L-4-D7-IR],–,3.4,4.8,1.4,0.3
SRAKVEAEMPDSGDPFYHKLSELLASG [B6Hα-1-A3-IR],–,3.3,2.6,0.8,0.3
SRVAATKEKRPSDDPFYHKLSELLQGS [B6Hα-3-F7-IR],–,3.1,3.1,1,0.3
YRGMLVLGRSSDGAGKVAFERPARIGQTVFAVNFYDWFV [A6L-0-E6-IR],–,17,31,1.8,0.1
GIISQSCPESFYDWFAGQVSDPWWCW [H2CA-4-G9-IGFR],–,16,9.5,0.6,0.1
VGRASGFPENFYDWFGRQLSLQSGEQ [H2CA-4-H6-IGFR],–,14.6,10.5,0.7,0.1
VGYQGQGDENFYDWFIRQVSGRLGVQ [H2CA-4-F5-IGFR],–,12.3,9.7,0.8,0.1
SACQFDCHENFYDWFARQVSGGAAYG (not fully specified (bridges); cysteine pairing not given here) [H2CA-4-H8-IGFR],–,9.4,9.2,1,0.1
SAAQLFFQESFYDWFLRQVAESSQPN [H2CA-4-F11-IGFR],–,6.7,6.8,1,0.1
